# Biological target: heat shock protein 70 (UniProt P0DMV8)
# Experiment: co-immunoprecipitation (anti-Flag beads) and western blot, band densitometry
# Settings: beads incubated with celastrol for 10 min, room temperature; n = 3; parent: est. 0.73; read off a plot
# UniProt P0DMV8, sequence (P0DMV8 whole entry): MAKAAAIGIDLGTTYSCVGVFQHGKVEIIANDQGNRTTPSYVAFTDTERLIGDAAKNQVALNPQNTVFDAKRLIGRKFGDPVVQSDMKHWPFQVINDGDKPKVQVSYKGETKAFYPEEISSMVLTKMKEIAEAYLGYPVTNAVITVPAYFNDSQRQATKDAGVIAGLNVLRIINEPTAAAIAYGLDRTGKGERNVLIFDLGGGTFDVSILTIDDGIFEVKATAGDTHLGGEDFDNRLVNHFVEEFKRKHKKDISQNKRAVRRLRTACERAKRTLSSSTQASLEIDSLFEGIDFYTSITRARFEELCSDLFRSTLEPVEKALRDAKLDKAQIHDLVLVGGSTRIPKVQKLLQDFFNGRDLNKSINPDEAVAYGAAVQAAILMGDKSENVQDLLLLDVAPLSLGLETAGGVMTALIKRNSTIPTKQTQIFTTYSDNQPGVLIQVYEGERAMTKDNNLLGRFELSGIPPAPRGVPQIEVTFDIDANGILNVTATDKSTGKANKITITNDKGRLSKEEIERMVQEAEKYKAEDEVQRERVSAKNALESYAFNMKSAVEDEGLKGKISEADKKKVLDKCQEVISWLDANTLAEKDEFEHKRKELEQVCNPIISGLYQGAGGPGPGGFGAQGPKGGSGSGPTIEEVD
substance,measurement,value
"wild-type human HSP90α (Flag-tagged, from pCMV-tag2a) (from UniProt P07900-1) Y493G; K546D","other: band density of cell-free experiment (ratios to HSP90α), DMSO group set as 1.0",1.3
